This is an account of results in US20190338048A1 (published 2019).

Experiment [1] addresses CAT-2200 heavy chain Fab construct (H1), wild type. Description: LCCA, SPR tag read-out.
The target of experiment [2] is Pertuzumab heavy chain Fab construct (H2) Q39E (VH Q39E). The experiment is described as follows: LCCA, SPR tag read-out.
The target in experiment [3] is Pertuzumab heavy chain Fab construct (H2) Q39D (VH Q39D). The experiment is described as follows: LCCA, SPR tag read-out.
Experiment [4] has as its target CAT-2200 heavy chain Fab construct (H1) Q39R (VH Q39R). Description: LCCA, SPR tag read-out.
Experiment [5] addresses Pertuzumab heavy chain Fab construct (H2) Q39E (VH Q39E). Description: LCCA, SPR tag read-out. This is another data set of the same source.
Experiment [6] concerns the target Pertuzumab heavy chain Fab construct (H2) Q39D (VH Q39D). Description: LCCA, SPR tag read-out. This is another data set of the same source.
Experiment [7] addresses CAT-2200 heavy chain Fab construct (H1) Q39R (VH Q39R). Description: LCCA, SPR tag read-out. This is another data set of the same source.
In experiment [8] the target is Pertuzumab heavy chain Fab construct (H2) Q39E (VH Q39E). Description: LCCA, SPR tag read-out. This is another data set of the same source.
Experiment [9] addresses Pertuzumab heavy chain Fab construct (H2) Q39D (VH Q39D). Description: LCCA, SPR tag read-out. The source holds these as a separate data set.
In experiment [10] the target is T1, Recombinant human IL-17A (human, UniProt Q16552 20-155, limits assumed). Description: SPR. (In general: Surface plasmon resonance follows binding to a sensor surface in real time, without labels.)
T1 sequence (Q16552 20-155 limits assumed): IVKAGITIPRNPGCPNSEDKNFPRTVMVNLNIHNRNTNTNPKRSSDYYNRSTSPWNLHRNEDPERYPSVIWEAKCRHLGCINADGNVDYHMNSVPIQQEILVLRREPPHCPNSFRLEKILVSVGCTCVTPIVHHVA
Experiment [11] deals with T1, Recombinant human IL-17A. The experiment is described as follows: SPR. The source holds these as a separate data set.
For experiment [12], the target named is T2, Recombinant HER2 protein (HER2-ECD) (UniProt P04626 23-652, limits assumed). Description: SPR.
The target of experiment [13] is T2, Recombinant HER2 protein (HER2-ECD). The experiment is described as follows: SPR, Fab captured, HER2 as analyte.
Experiment [14] concerns the target T3, His-tagged recombinant human CD-19 (human, UniProt P15391 20-291, limits assumed).
T3 sequence (looked up): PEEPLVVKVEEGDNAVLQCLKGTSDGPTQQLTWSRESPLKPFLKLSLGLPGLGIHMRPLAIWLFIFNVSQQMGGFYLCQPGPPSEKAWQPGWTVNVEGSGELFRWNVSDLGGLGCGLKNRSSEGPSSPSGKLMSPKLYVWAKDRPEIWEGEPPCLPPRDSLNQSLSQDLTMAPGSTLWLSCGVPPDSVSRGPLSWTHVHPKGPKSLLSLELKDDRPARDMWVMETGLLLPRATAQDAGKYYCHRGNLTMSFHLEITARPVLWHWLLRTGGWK
Description: SPR.

For experiment [15], the target named is T4, His-tagged recombinant human CD-19 (human, UniProt P15391 20-291, limits assumed).
T4 sequence (looked up): T3 sequence (looked up)
The experiment is described as follows: SPR. This is another data set of the same source.

For experiment [16], the target named is His-tagged Influenza B Hemagglutinin (B/Brisbane/60/2008) (Influenza B virus (B/Brisbane/60/2008)). The experiment is described as follows: SPR.
Experiment [17] has as its target T4, His-tagged recombinant human CD-19. The experiment is described as follows: SPR. This is another data set of the same source.
Experiment [18] concerns the target His-tagged Influenza B Hemagglutinin (B/Brisbane/60/2008) (Influenza B (B/Brisbane/60/2008)). Description: SPR.
Experiment [19] concerns the target T5, His-tagged recombinant human CD-19 (human, UniProt P15391 20-291, limits assumed).
T5 sequence (looked up): T3 sequence (looked up)
The experiment is described as follows: SPR. This is another data set of the same source.

The target of experiment [20] is Recombinant human IL-17A (human, UniProt Q16552 20-155, limits assumed). Description: SPR. The source holds these as a separate data set.
Target sequence in this assay (Q16552 20-155 limits assumed): as the sequence (Q16552 20-155 limits assumed) above
Experiment [21] shares this target. Description: SPR. This is another data set of the same source.
Target sequence in this assay (Q16552 20-155 limits assumed): as the sequence (Q16552 20-155 limits assumed) above

One may read the Kd as the equilibrium constant for the complex coming apart.

Where a chain is given by its changes, count along the chain named. In names and notes the source's numbering stands. Read-outs that look alike come from different tables or passages of the source.

B1: Pertuzumab kappa light chain construct (L2) Q38R, HA-tagged (other, not shown: small tags and cut ends)
light: DIQMTQSPSSLSASVGDRVTITCKASQDVSIGVAWYQRKPGKAPKLLIYSASYRYTGVPSRFSGSGSGTDFTLTISSLQPEDFATYYCQQYYIYPYTFGQGTKVEIKRTVAAPSVFIFPPSDEQLKSGTASVVCLLNNFYPREAKVQWKVDNALQSGNSQESVTEQDSKDSTYSLSSTLTLSKADYEKHKVYACEVTHQGLSSPVTKSFNRGEC
On to B1, for which the results for the “H1L1:H1L2 normalized median ratio (H1L2 part)” value in experiment [1], in experiment [4] and in [7] were 26%, 23% and 28%, respectively. The “H2L2:H2L1 normalized median ratio (H2L2 part)” value in experiment [2] turned out to be 48%; in experiment [3], 49%; in experiment [5], 73%; in experiment [6], 77%; in [8], 77%; in experiment [9], 92%. Besides, the “H2L2:H2L1 normalized median scalar value ln(r1/f1)” value in experiment [2] is -0.08; in [3], -0.03; in experiment [5], 1.02; in experiment [6], 1.19; in experiment [8] it was 1.19; in [9] it was 2.47.

B2: Design 4320 bispecific antibody, System A (CAT-2200 H1/L1 & Pertuzumab H2/L2) (bispecific antibody)
chain 1: not shown
chain 2: NFMLTQPHSVSESPGKTVTISCTRSSGSLANYYVQWYQQRPGSSPTIVIFANNQRPSGVPDRFSGSIDSSSNSASLTISGLKTEDEADYYCQTYDPYSVVFGGGTKLTVLGQPKAAPSVFLFPPSSEELQANTATLDCLISDFYPGAVTVAWKADSSPVKAGVETTTPSKQSNNKYAAFSYLSLTPEQWKSHRSYSCQVTHEGSTVEKTVAPTECS
chain 3: not shown
chain 4: B1 light with R38Q, Q124K, L135A, T178R
On to B2, for which the Kd in the experiment with Recombinant human IL-17A [10] worked out at 0.36 nM.

B3: Design 2816 bispecific antibody, System A (CAT-2200 H1/L1 & Pertuzumab H2/L2) (bispecific antibody)
chain 1: not shown
chain 2: B2 chain 2 with F120T, T133K, D137V, F179S, S183E
chain 3: not shown
chain 4: B1 light with R38Q, Q124R, Q160K, T178R
In the case of B3, in the experiment with Recombinant human IL-17A [11], the Kd is 0.51 nM.

B4: Pertuzumab Fab heterodimer H2L2 of design 10674-10749 (H2 Q39K, L2 Q38E) (Fab, name in Kabat numbering, V domains shown, not shown: small tags and cut ends)
VH: EVQLVESGGGLVQPGGSLRLSCAASGFTFTDYTMDWVRKAPGKGLEWVADVNPNSGGSIYNQRFKGRFTLSVDRSKNTLYLQMNSLRAEDTAVYYCARNLGPSFYFDYWGQGTLVTVSS
VL: DIQMTQSPSSLSASVGDRVTITCKASQDVSIGVAWYQEKPGKAPKLLIYSASYRYTGVPSRFSGSGSGTDFTLTISSLQPEDFATYYCQQYYIYPYTFGQGTKVEIKR
Turning to B4, the equilibrium dissociation constant (Kd) in [12] stood at 6.09 nM. Moreover, the “Change in KD of H2L2 Fab vs wild type, -(log(KD_design)-log(KD_wt))” value in experiment [13] was 0.12 log(KD) difference.

B5: Design 4040 SGN-CD19a H2L2 arm in OAA (one-armed antibody) format (antibody, V domains shown)
VH: QVTLRESGPALVKPTQTLTLTCTFSGFSLSTSGMGVGWIRQPPGKAPEWLAHIWWDDDKRYNPALKSRLTISKDTSKNQVVLTMTNMDPVDTAAYYCARMELWSYYFDYWGQGTLVTVSS
VL: EIVLTQSPATLSLSPGERATLSCSASSSVSYMHWYQQKPGQAFRLLIYDTSKLASGIPARFSGSGSGTDFTLTISSLEPEDFAVYYCFQGSVYPFTFGQGTKLEIKR
Turning to B5, the Kd in experiment [14] is 22.4 nM.

B6: Design 2979 bispecific antibody, System C (CR8071 H1/L1 & SGN-CD19a H2/L2) (bispecific antibody)
chain 1: QVQLVQSGAEVKKPGASVRVSCRASGYIFTESGITWVRQAPGQGLEWMGWISGYSGDTKYAQKLQGRVTMTKDTSTTTAYMELRSLRYDDTAVYYCARDVQYSGSYLGAYYFDYWSPGTLVTVSSASTKGPSVFPLAPSSKSTSGGTAALGCLVKDYFPEPVTVSWNSGALTSGVHTFPAVLQSSGLYSLKSVVTVPSSSLGTQTYICNVNHKPSNTKVDKKVEPKSCDKTHTCPPCPAPELLGGPSVFLFPPKPKDTLMISRTPEVTCVVVDVSHEDPEVKFNWYVDGVEVHNAKTKPREEQYNSTYRVVSVLTVLHQDWLNGKEYKCKVSNKALPAPIEKTISKAKGQPREPQVYVYPPSRDELTKNQVSLTCLVKGFYPSDIAVEWESNGQPENNYKTTPPVLDSDGSFALVSKLTVDKSRWQQGNVFSCSVMHEALHNHYTQKSLSLSPG
chain 2: not shown
chain 3: not shown
chain 4: EIVLTQSPATLSLSPGERATLSCSASSSVSYMHWYQQKPGQAPRLLIYDTSKLASGIPARFSGSGSGTDFTLTISSLEPEDFAVYYCFQGSVYPFTFGQGTKLEIKRTVAAPSVFIFPPSDEQLKSGTARVGCLLNNFYPREAKVQWKVDNALQSGNSQESVTEQDSKDSTYSLRSTLTLSKADYEKHKVYACEVTHQGLSSPVTKSFNRGEC
For B6, the “Difference in H2L2 log(KD) from wild type” value in experiment [15] turned out to be 0.7. Besides, the Kd came to 0.93 nM in experiment [16] and 45.1 nM in experiment [17].

B7: Design 4320 bispecific antibody, System C (CR8071 H1/L1 & SGN-CD19a H2/L2) (bispecific antibody)
chain 1: B6 chain 1 with L153K, F178G, K191S
chain 2: not shown
chain 3: not shown
chain 4: B6 chain 4 with Q123K, R130S, G132V, L134A, R175S, T177R
For the molecule B7, the Kd was determined as 0.49 nM in experiment [18] and 258 nM in [19].

B8: CAT-2200 Fab heterodimer H1L1, no pairing substitutions (wild-type H1 and L1), light chain with FLAG tag (Fab, V domains shown, not shown: small tags and cut ends)
VH: not shown
VL: NFMLTQPHSVSESPGKTVTISCTRSSGSLANYYVQWYQQRPGSSPTIVIFANNQRPSGVPDRFSGSIDSSSNSASLTISGLKTEDEADYYCQTYDPYSVVFGGGTKLTVLG
For B8, the “Change in KD of H1L1 Fab vs wild type” value in the experiment with Recombinant human IL-17A [20] amounted to 0.

B9: CAT-2200 Fab heterodimer H1L1 of designs 10662-10731 and 10662-10733 (H1 L45F, L1 unmodified) (Fab, name in Kabat numbering, V domains shown, not shown: small tags and cut ends)
VH: EVQLLESGGGLVQPGGSLRLSCAASGFTFSSYAMSWVRQAPGKGFEWVSAISGSGGSTYYADSVKGRFTISRDNSKNTLYLQMNSLRAEDTAVYYCARDLIHGVTRNWGQGTLVTVSS
VL: B8 VL
For B9, in the experiment with Recombinant human IL-17A [21], the dissociation constant (Kd) is 0.29 nM.
